Measurements reported in patent US20230192860A1 (Bristol-Myers Squibb, published 2023).

Assays:
hVISTA-ECD 6-His tag [1] = target: T1, hVISTA-ECD 6-His tag (human, UniProt Q9H7M9 33-193); test: SPR, Ab on Protein A, hVISTA analyte, pH 6.9
T1 construct: also called monovalent hVISTA-ECD; human VISTA
Protocol: (§1) Further binding kinetic experiments were performed at various pHs on VISTA antibodies described herein by SPR as generally described in Example 9 above. Antibodies were normalized to 50 nM concentration in PBST pH 7.4 and captured on a Protein A CM5 chip (ID 4931) by injecting for 45 seconds at a 5 µL/min flow rate. An 8-point human VISTA titration ([…]) was prepared in PBST at pH 7.4, 6.9, 6.45, and 6.0. Titrations were injected over the captured antibodies for 180 seconds at 30 µL/min. Sensorgrams were fit to a 1:1 binding model in T200 evaluation software and the kinetic constants were reported.
(§2) Each table reports the data at one of the four tested pHs (7.4, 6.9, 6.45, and 6.0, respectively). The 8-point hVISTA titration used in these assays was chosen to provide increased confidence in kinetic values reported at neutral pH conditions. A relatively stringent cutoff for non-binding was applied in this assay. Certain progeny of P1-061029 antibody (P1-068757, ‘759, ‘765, ‘771, and ‘775) show no binding to hVISTA at micromolar concentrations at pH 7.4, while ‘761 and ‘767 show no binding to hVISTA at 100 nM at pH 7.4 but do show binding to hVISTA at micromolar concentrations.

hVISTA-ECD 6-His tag [2] = target: T1, hVISTA-ECD 6-His tag; test: SPR, Ab on Protein A, hVISTA analyte, pH 6.0
hVISTA-ECD 6-His tag [3] = target: T1, hVISTA-ECD 6-His tag; test: SPR, Ab on Protein A, hVISTA analyte, pH 6.45
hVISTA-ECD 6-His tag [4] = target: T1, hVISTA-ECD 6-His tag; test: SPR; KD at pH 6.9 over KD at pH 6.0 (head prints 7.4)
Protocol: as §1, §2

hVISTA-ECD 6-His tag [5] = target: T1, hVISTA-ECD 6-His tag; test: SPR; kd at pH 6.9 over kd at pH 6.0 (head prints 7.4)
Protocol: as §1, §2

hVISTA-ECD 6-His tag [6] = target: T1, hVISTA-ECD 6-His tag; test: SPR; KD at pH 6.45 over KD at pH 6.0 (head prints 7.4)
hVISTA-ECD 6-His tag [7] = target: T1, hVISTA-ECD 6-His tag; test: SPR; kd at pH 6.45 over kd at pH 6.0 (head prints 7.4)
Protocol: as §1, §2

[8] = target: T2, monovalent hVISTA-ECD (amino acids 32-193 of SEQ ID NO: 1 with a 7xHis tail) (human, UniProt Q9H7M9 33-193); test: SPR, pH 7.4 over pH 6.0
T2 construct: analyte of the SPR assays; also called huVISTA-His; human VISTA-ECD
T2 sequence (Q9H7M9 other isoform, or with tags, fused parts or gaps limits assumed): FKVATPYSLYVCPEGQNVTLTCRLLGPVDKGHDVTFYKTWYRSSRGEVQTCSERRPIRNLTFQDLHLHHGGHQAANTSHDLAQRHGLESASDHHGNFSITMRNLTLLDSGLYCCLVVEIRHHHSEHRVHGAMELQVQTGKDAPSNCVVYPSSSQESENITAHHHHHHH
Protocol: as §1, §2

[9] = target: T2, monovalent hVISTA-ECD (amino acids …); test: SPR, Ab on Protein A, hVISTA 100-7.8 nM, pH 7.4
Protocol: as §1

[10] = target: T2, monovalent hVISTA-ECD (amino acids …); test: SPR 37C, Ab on Protein A, hVISTA-ECD 50-5 nM, pH 6.0, average
Protocol: Binding of several preparations of each of the ‘029 progeny clones and of the parent ‘029 antibodies, formatted as IgG1.3 antibodies, to human VISTA at pH 6.0 and 7.4 was measured by Surface plasmon resonance (SPR). SPR analysis was performed to measure koff and KD binding affinity measurements for VISTA Abs at acidic and neutral pHs using a Biacore® T100 instrument (GE Healthcare). […] Antibodies were diluted to 25 nM in PBST pH 7.4, and were captured across active biosensor flow cells at 5 ul/min for 60 seconds. A concentration series of 50 - 5 nM monovalent hVISTA-ECD (SEQ ID NO: 325) was prepared in pH 7.4 and 6.0 running buffers, and was injected over the captured antibodies at 40 ul/min to measure association and dissociation. Two 15 second injections of 10 mM glycine pH 1.5 were used to regenerate the Protein A capture surface between assay cycles. Rate constants ka (kₒₙ) and kd (koff) were derived from reference flow cell and 0 nM blank-subtracted sensorgrams, and were fit to a 1:1 binding model in Biacore® T200 Evaluation Software v.2.0. The affinity constant, KD was calculated as the ratio of rate constants koff/kₒₙ for each VISTA antibody.

T1 sequence (Q9H7M9 other isoform, or with tags, fused parts or gaps limits assumed): as above

Row | Binder | 7.4 KD/ 6.0 KD [8] | 7.4 kd/ 6.0 kd [8] | Kd [9] [nM] | koff [9] [s⁻¹] | kon [9] [M⁻¹ s⁻¹] | other results
1 | P1-061029 (antibody, human IgG1, kappa, also called P1-061029-18; P1-061029.IgG1.3) heavy: EVQLVESGGGLVQPGKSLRLSCAASGFTLDDYAMHWVRQAPGKGLEWVSGINWNSANIGYADSVKGRFTISRDNAKNSLYLQMNSLRTEDTALYYCAKVPGYSGGWIDAFDVWGQGTMVTVSSASTKGPSVFPLAPSSKSTSGGTAALGCLVKDYFPEPVTVSWNSGALTSGVHTFPAVLQSSGLYSLSSVVTVPSSSLGTQTYICNVNHKPSNTKVDKRVEPKSCDKTHTCPPCPAPEAEGAPSVFLFPPKPKDTLMISRTPEVTCVVVDVSHEDPEVKFNWYVDGVEVHNAKTKPREEQYNSTYRVVSVLTVLHQDWLNGKEYKCKVSNKALPAPIEKTISKAKGQPREPQVYTLPPSREEMTKNQVSLTCLVKGFYPSDIAVEWESNGQPENNYKTTPPVLDSDGSFFLYSKLTVDKSRWQQGNVFSCSVMHEALHNHYTQKSLSLSPG light: not shown | – | – | – | – | – | Kd (hVISTA-ECD 6-His tag [1]): 7.13 nM; koff (hVISTA-ECD 6-His tag [1]): 0.00416 s⁻¹; kon (hVISTA-ECD 6-His tag [1]): 583000 M⁻¹ s⁻¹; Kd (hVISTA-ECD 6-His tag [2]): 2.91 nM; koff (hVISTA-ECD 6-His tag [2]): 0.00527 s⁻¹; kon (hVISTA-ECD 6-His tag [2]): 1.81e+06 M⁻¹ s⁻¹; Kd (hVISTA-ECD 6-His tag [3]): 5.13 nM; koff (hVISTA-ECD 6-His tag [3]): 0.0045 s⁻¹; kon (hVISTA-ECD 6-His tag [3]): 876000 M⁻¹ s⁻¹; 7.4 KD/ 6.0 KD (hVISTA-ECD 6-His tag [4]): 2.5; 7.4 kd/ 6.0 kd (hVISTA-ECD 6-His tag [5]): 0.8; 7.4 KD/ 6.0 KD (hVISTA-ECD 6-His tag [6]): 1.8; 7.4 kd/ 6.0 kd (hVISTA-ECD 6-His tag [7]): 0.9
2 | P1-068761 (antibody, human IgG1, kappa, also called P1-068761-20) heavy: EVQLVESGGGLVQPGKSLRLSCAASGFTLEDEAMHWVRQAPGKGLEWVSGINWNSEEIGYADSVKGRFTISRDNAKNSLYLQMNSLRTEDTALYYCAKVPGYSHGWIDAEDVWGQGTMVTVSSASTKGPSVFPLAPSSKSTSGGTAALGCLVKDYFPEPVTVSWNSGALTSGVHTFPAVLQSSGLYSLSSVVTVPSSSLGTQTYICNVNHKPSNTKVDKRVEPKSCDKTHTCPPCPAPEAEGAPSVFLFPPKPKDTLMISRTPEVTCVVVDVSHEDPEVKFNWYVDGVEVHNAKTKPREEQYNSTYRVVSVLTVLHQDWLNGKEYKCKVSNKALPAPIEKTISKAKGQPREPQVYTLPPSREEMTKNQVSLTCLVKGFYPSDIAVEWESNGQPENNYKTTPPVLDSDGSFFLYSKLTVDKSRWQQGNVFSCSVMHEALHNHYTQKSLSLSPG light: not shown | – | – | – | – | – | Kd (hVISTA-ECD 6-His tag [1]): 142 nM; koff (hVISTA-ECD 6-His tag [1]): 0.00832 s⁻¹; kon (hVISTA-ECD 6-His tag [1]): 58700 M⁻¹ s⁻¹; Kd (hVISTA-ECD 6-His tag [2]): 2.71 nM; koff (hVISTA-ECD 6-His tag [2]): 0.00202 s⁻¹; kon (hVISTA-ECD 6-His tag [2]): 745000 M⁻¹ s⁻¹; Kd (hVISTA-ECD 6-His tag [3]): 16.2 nM; koff (hVISTA-ECD 6-His tag [3]): 0.00309 s⁻¹; kon (hVISTA-ECD 6-His tag [3]): 190000 M⁻¹ s⁻¹; 7.4 KD/ 6.0 KD (hVISTA-ECD 6-His tag [4]): 52.4; 7.4 kd/ 6.0 kd (hVISTA-ECD 6-His tag [5]): 4.1; 7.4 KD/ 6.0 KD (hVISTA-ECD 6-His tag [6]): 6; 7.4 kd/ 6.0 kd (hVISTA-ECD 6-His tag [7]): 1.5
3 | P1-070868 (P1-068761_E55A) (antibody, human IgG1, kappa, V domains shown, IgG1.3; also called P1-070868-6) VH: EVQLVESGGGLVQPGKSLRLSCAASGFTLEDEAMHWVRQAPGKGLEWVSGINWNSAEIGYADSVKGRFTISRDNAKNSLYLQMNSLRTEDTALYYCAKVPGYSHGWIDAEDVWGQGTMVTVSS VL: not shown | 625 | 18.9 | 3400 | 0.044 | 13000 | –
4 | P1-070906 (P1-068767_D52N) (antibody, human IgG1, kappa, V domains shown, IgG1.3; also called P1-070906-6) VH: EVQLVESGGGLVQPGKSLRLSCAASGFTLEDYAMHWVRQAPGKGLEWVSGINWNSENIGYADSVKGRFTISRDNAKNSLYLQMNSLRTEDTALYYCAKVPGYSGGWIDAEDDWGQGTMVTVSS VL: not shown | 731 | 15.3 | 4400 | 0.029 | 6500 | –
5 | P1-070914 (P1-068767_E30D_D52N) (antibody, human IgG1, kappa, V domains shown, IgG1.3; also called P1-070914-3) VH: EVQLVESGGGLVQPGKSLRLSCAASGFTLDDYAMHWVRQAPGKGLEWVSGINWNSENIGYADSVKGRFTISRDNAKNSLYLQMNSLRTEDTALYYCAKVPGYSGGWIDAEDDWGQGTMVTVSS VL: not shown | 396 | 14.6 | 4200 | 0.035 | 8400 | –
6 | P1-070916 (P1-068767_D52N_E55A) (antibody, human IgG1, kappa, V domains shown, IgG1.3; also called P1-070916-6) VH: EVQLVESGGGLVQPGKSLRLSCAASGFTLEDYAMHWVRQAPGKGLEWVSGINWNSANIGYADSVKGRFTISRDNAKNSLYLQMNSLRTEDTALYYCAKVPGYSGGWIDAEDDWGQGTMVTVSS VL: not shown | 563 | 19.4 | 3700 | 0.038 | 10000 | –
7 | P1-070908 (P1-068767_E55A) (antibody, human IgG1, kappa, V domains shown, IgG1.3; also called P1-070908-6) VH: EVQLVESGGGLVQPGKSLRLSCAASGFTLEDYAMHWVRQAPGKGLEWVSGIDWNSANIGYADSVKGRFTISRDNAKNSLYLQMNSLRTEDTALYYCAKVPGYSGGWIDAEDDWGQGTMVTVSS VL: not shown | 34.5 | 8.6 | 350 | 0.024 | 67000 | –
8 | P1-061520 (41F11 VK_A64G) (antibody, V domains shown, tied through the name 41F11 and the A64G change; also called P1-061520-21; VISTA.4.A64G) VH: QVQLVESGGGLVKPGGSLRLSCAASGFTFSDYYMSWIRQAPGKGLEWVSYISNSGSPIYYADSVKGRFTISRDNAKNSLYLQMNSLRAEDTAVYYCARDLPGWYFDLWGRGTLVTVSS VL: EIVLTQSPATLSLSPGERATLSCRASQSVSSYLAWYQQKPGQAPRLLIYDASNRATGIPARFSGSGSGTDFTLTISSLEPEDFAVYYCQQRNNWPRTFGQGTKVEIKR | 0.1 | 0 | 1.42 | 0.000871 | 613000 | –
9 | P1-070976 (41F11_VH_T28P_Y50W_S55E_D95H_L96E_P97E_Y100E; Vk_A64G) (antibody, V domains shown, also called P1-070976-11) VH: QVQLVESGGGLVKPGGSLRLSCAASGFPFSDYYMSWIRQAPGKGLEWVSWISNSGEPIYYADSVKGRFTISRDNAKNSLYLQMNSLRAEDTAVYYCARHEEGWEFDLWGRGTLVTVSS VL: EIVLTQSPATLSLSPGERATLSCRASQSVSSYLAWYQQKPGQAPRLLIYDASNRATGIPARFSGSGSGTDFTLTISSLEPEDFAVYYCQQRNNWPRTFGQGTKVEIK | 696 | 7 | 6900 | 0.016 | 2400 | –
10 | P1-068748 (antibody, human IgG1, kappa, V domains shown, IgG1.3; also called P1-068748-6) VH: QVQLVESGGGVVQPGRSLRLSCAASGFTFSHHAMHWVRQAPGKGLEWVAIIWYDGSNDDYADSVKGRFTISRDNSKNTLYLQMNSLRAEDTAVYYCARDSGFYDSYYFDYWGQGTLVTVSS VL: EIVLTQSPATLSLSPGERATLSCRASQSVSSSYLAWYQQKPGQAPRLLIYDASNRATGIPARFSGSGSGTDFTLTISSLEPEDFATYYCQQYNSYPYTFGQGTKLEIKR | 212 | 9.9 | 920 | 0.036 | 40000 | Kd [10]: 1 nM; koff [10]: 0.0015 s⁻¹; kon [10]: 1.4e+06 M⁻¹ s⁻¹
